Experimental data reported in the DeepSol protein solubility set.

Assay: soluble on expression in E. coli; label from the status in PepcDB or PDB records

Soluble on expression in E. coli, not soluble:
MGSDKIHHHHHHAAPSPDAQRVAAYAASHFQQAQIDTLKTLVGYDTRARDGLTPDTDPVFADFKRALGVKARMLGLDVEDNGYVMLISLSPEGAGTDVKKVGVITHGDVQPADPSLWPQSPYELTETADGRLVGRGAEDDKGPIATALYAMKAIKDSGIVLKRRIELLVYMAEESDWEPLKDFLKTYEPADINITLDAEYPVVTGEKGWSQIKLSLPRVMVKVGADTPVLTYFSGGSFASQIPQQASAVIQNTNPELVAALKARAKTLPIKTDFIDEPQGLTIHATGKAAHSSTPEDGINAVAYLAELLSPTADGGIPEWPMTTAAVTVDFLHSLVGTGLYGERFGKLGYSDEFMGPMTLAPTLITEGKEGTDVTLNLRRPVGRTPEALDKLAIAAIHGWQDARGTQVADIETYWGTPMLIDDAPHLETLLGVFGHYTNTAGPKPIAIGGSTNAKLFPNALSFGPAMPGMEYTGHSEYEFITRDQLKLNLEMYTAALVELAMRE, MGSDKIHHHHHHAATVAEATSNPWDNYYIGKIDFKNLSPEAKGSAIYAAVIPDPEAYITKHARKVVETLYFTPEDSIPGIEEIHYTLKEYDGVSAKDGAPPSISIVYSTKWIEKSFANNDTAKVDYETRGVLYHELTHGFQLEPQGIGSYGTNKTFWAMIEGVADAVRYLNGGFTLEDRPKGGHYMDGYRTTGFFLAWLTQTKSPDFLRKFNRSTLEVIPWSFDGGVKYALGNDYDIDSLWKEYMATMGDEA, MGSDKIHHHHHHAAVKKIIEMGQNDNQVMHQLDILTNRFGGRLIGSDAYENAAEWMVREFKSWGLDVQLEEAGTVPVGFNRGPWFGRLLSDNGMILHFATPSYTSGTKGVQRGHAVMEPRNDEEFQQIKGRLNGAWVLISGKNVGWPIDRSASGDSIRAEIKKENNEIMKKNNDLRRRNWENGEKNEMLPYKEFPGLYYKEMCEAGALGFIQSSTVPIRALYDRKMMNDPNTNFDNLPELPDIKLDEHQFAIIEQMVKERRTFELEFDIRNHFKLGPVKYHNVVASIKGSKYPDEYVIISGHLDAFDVATGGIDCGTGIGPMMEAARMIAKSGAKPKRTILFIGFAGEEFGLLGAQAWVKAHKDKLPKIANLFNRDGGPEPPVGISVPQAMYDDFVKISEPIQKIRPDYPFEVKVREPRKRPTRMGGTDASVFAIEGVPTLGFTTEDFKGYDFDYGEIWHTERDLYTKNIPEYQEHTATVTAIIALGVANLDKQLSREGLYTEE, MGSDKIHHHHHHACCQGAASSGNAGKNASRVRIASNDSAKLVPDKALNDASCVLAGLPVDKASGKLYALTRTKEWKNHARYMDQIWNVFRQTAPRLVAFSQTELEDINTRCHTLFYPFGGPDFLFANAFFPEMDTYVLIGLEPAGTAPKVKHPSAETYRLYQNAVSNVLNLSFFNDMDKELANDTIDGVVPIYSLLMARGNRKIVSIQEVWLSETGDLFERKEGDTIRNTCSAGMEVRFFRPGASRLQTLYYFCTDISNEGLQANRPLQAFMDRFDAETTATFVKSASYLMHEPAFSRIRETILQKSSAVVQDDSSIPLSCFDPEVWSVTLYGTFYKPISTFSQYLQPQLRDAYQLGDPNPLNFRIGYARQSNLQVARRK, MGSDKIHHHHHHAELPAGTVIDKANLDKIKSDTFDGHTIASLLTDKLEWQIRNTGLKIPLGHAKPVQLDPKYIEATKKNAGKAQFDEKSREVTGWVAGIPFPEVSQNDPFAGDKLVWNFYYASPEGDVINNKATFLMISGDKGLESTQDWLFERYYMKGRISGDKPVLGDGSILSKTLFVATAPEDIKGVGTFTIRYDSPKLEDSWAYIKSARRTRRLSGGAWMDPVGGLDVLNDDIYVWNARPSWYPKVKLVGRRWILAISDAKLGYNASKKGTPEEWKTVDLSNPPYWNPVQTWQPREVWVIEGTPPAEHPYGKKVVYMDVNYPRVYMGEAYDKKGEFWKFINFHMTPSVGEDGTKYSSSIQGDIIDFKARHASIYLFRGYKLNEAKIKETDMSYSALESIAK, MGSDKIHHHHHHAFCLDNGLGRTPPMGWMSWTAFYCEIDCVKHPTGCINEQLYKDMADQLVSGGYDKVGYKSVHIDDCWSEMERDSHGILVANKTRFPSGMKALAKYMHDRGLKFGIYEDYGTKTCGGYPGSYKHEKVDAQTFAAWDVDYLKLDGCNIDQAMMPIGYPLFEKELNETGRPIMYSCSW, MGSDKIHHHHHHAKNVLKAWLVDNTVTTDDKTDKIFQLETTRSIDKEIILDRMVAKNPGVRRETMALGIELMEEVVAEALMNGESVNTGLFRGVAQFRGVAKQNAWDAATNSIYVSLTQGKALREAIKDTRVDVLGERPTKFYIGSGQDATTRATDFSATAGRNFTLFGKNLTVAGTDPSVGVTLASAATGTVTKIDNDMIVLNEPSRLIILLPASLEDGEYMLTVTTQYRGGGGALLKTPRSTSHTIYIGGAPETGGSTGPPGDSDGDLNENPLG, MGSDKIHHHHHHAKTTTATTTQASVKKQTYTILSSSFYKTAKTYHTKDAKPVVYKAVMGADRPTMTLTAKGKLKAGTTYKVTKQVKVKINAKKSQKYSYVKGQGWVVSSKLTAGKFKAASGVKKTATKYTIVSVTALKKAKTVHTKDARPVVYKAAVAADRPTMTLTTNGKLKAATTYKVTKQAKLKNAAKKTVAFSYVSGHGWVLQRDLTNGQFMNAD, MGSDKIHHHHHHAKTTTQHGNALAAYNVKRYKTVKNRNLFVKRYAFQQSYTNIFQTSPTQISSTKGKAVTFKSNVFLPVTYQRSADWGNPQSEVLTPNGNTLYELITTSSQSTTGRIVRYNLGALRHFGITSTHMDALRRATYDHSVGKLTATDKAILKNVTVGPLFNTGHGQSLARNPKNGQLWFIGKPGAVKSNVQQVSTKTLKPSTKVNFTLKNTVPMGSNLTFDKHGKAYFFTYSNGGWAPKGAVKIYQGTISTKSVHFHLVMQGLRYAPGTKPQSMAYNAKRNRLYFVSDSSLASIPVSKLGKLKASQVEGTNLNGHREFEGLQFTSNGSGYLLVNKGAELMQTTHATF, MGSDKIHHHHHHAQNTASVQEAMANYDYKTVIRLIDEESASPQLLIQKAKALKSLGRTAEALSTLQHIIIELPENQQALVEAAECCRQLSKFNEALGYYRKVMELNPEHIYAHLQYTRLLYNYQRYGDALRESIALARKDSSATVLRLMAESMEGAGMPVESMFCYLSIIRKYPSDYLSVAKLGSIFNTMKDYEGAIALTEAYRRTDSTNVEVNRQNALAYCLRKEYPTAIKRYQDLTARGDSTLLTCYYLGVSYYATKEYYKARDWLLKAKSCQSPGANLLYYLGRSCSKTLWKQEGIGYLNQAIALTIPADSIMERLYSGLADCYRQTKQTRDQIKATKEQYKYAPDKHILLYNLAFLSDKIGDTKATEHYLQAFLRTKSKQNAVLQQPDDDEEEPAPYIDYYKSATNKLESIRKEKFLKGEK, MGSDKIHHHHHHAQQSSGDYYEGLSRKIGFSQMIPPHGLEITYDKTVHIIFPSPVRYVDLGSPNLIAGKADGAENVIRVKATRKHFRSETNMSVITEDGNFYTFNVKYADEPLLLNVEMCDFIHDGESVNHPNNAMEIYLQELAGESPRLVRLIMKSVYMQDKRKVKHVGSKRFGVQYLLKGLYAHGELLYFHTEVKNATHVPFDVDFVTFKIVDKKIVKRTAMQEQVIYPLRAFNYVTRVDGKKNERTVFALPKFTIPDGKKLVVEMYEKQGGRHQSFEVENEDLVRAGTVNELKVR, MGSDKIHHHHHHAQSDGWSPKDHNLIKSVREDGRFLSSYGVVHAMLRNTEPRYAFHRDFSPKEFRKWQKGLRHAMEEIMKFPQIKNSPAPVCIKREQREGYRLEKWEFYPLPKCVSTFLVLIPDNINKPVPAILCIPGSGGNKEGLAGEPGIAPKLNDRYKDPKLTQALNFVKEGYIAVAVDNPAAGEASDLERYTLGSNYDYDVVSRYLLELGWSYLGYASYLDMQVLNWMKTQKHIRKDRIVVSGFSLGTEPMMVLGTLDTSIYAFVYNDFLCQTQERAEVMTMPDKNGRRPFPNSIRHLIPDFWKNFNFPDIVAALAPRPIILTEGGLDRDLDLVRKAYAIVGTPDNVKIYHYKKFSDPDTRKNVEYLPEGLDRNEYFRMVNVDGPNHYFKSELVVPWLRKLLEER, MGSDKIHHHHHHAQTEVLTGVTRGKDYGVVYALPKTQIEIEIKANKVNYKPGEFSKYADRYLRLTNVSAEPEEYWELNSVKVKPVGVPNSEATYFVKLKDKTVAPLMELTEEGLIKSINVPYSSNNAKNAANNAVAPQRKANPRDFLTEEILMASSTAKMAELVAKEIYNIRESKNALLRGQADNMPSDGAQLKIMLDNLNLQEEAMTEMFSGVRNKEEKTFTVRLTPDKEFDNEVAFRFSKKLGIVANNDLAGTPFYISLKDLKTVKIPQEDGKKKKEMEGIAYNVPGQAMVTLTDGKKKLYEGEIPVTQFGIIEYLAPVLFNKNSTIKVYFDPVTGGLLKVDREESK, MGSDKIHHHHHHAQTGASDGSRFGHGEDSIRCLKNISIYTEYVKTNNFKDAYTPWMSVFTEAPKAQVSTYTNGAKILRALIAGEKDAAKQKQYFNELMKVHDQRIQYLDDLNKLVKRDATKGSIIGMKAHDYFTMGGQDMNEAYNMFKEAIELEKENSDYFVLQEFMDAAARKMKSDEAYKEQFIQDYLFASGVADGALKAATKENDKKLLKVAKDNIDAFFINSGVATCDNLQAIYAPKVEQNKTNLDYLKQVISVMQMLNCTEQEAYFAASEAAHAIEPTAETAVGCGYMYYKKGDMDKCIDYFDQAINLEQDPLKKADYAYKTAAILFSKKQLSKAKQYALKSISLDGNNGKPYILIANMYASSPNWSDEAALNKCTYFAVIDKLQKAKSVDPSVAEEANKLIGTYAAHTPKDADLFFLSLKKGDSVTIGGWIGETTTIR, MGSDKIHHHHHHAQTPVEKGLKSINRQAAEAYIGFLADDELQGREAGFHGSRVAARYIASLLKEMGIRPLGESYYQPFDAYRKERQQKGRLEVHPDSIAKLKQVVHQKLSMNNVLGMIPGKKTNEYVIVGAHFDHLGIDPALDGDQIYNGADDNASGVSAVLQIAKAFVVSGQQPERNVIFAFWDGEEKGLLGSKYFVQECPFINQVKGYLNFDMIGRNNQPQNPKHVVYFYTEANPAFGRWLKEDIKKYGLQLEPNYRPWDKPVGGSDNGSFAKAGIPIIWYHTDGHPDYHQPSDHADRLNWDKVVEISKASFLNVWNLANEKDY, MGSDKIHHHHHHATCCAANGEGNCPEGTCRKECTNACNTNNQKNKTMAYSKKYTNADFYKDGKFQQDVAMEAMKDMFAFYDVPFTELMAKDMWVTDFGLGDFENVGMGGIFWINDPEYKYFAHAIYLLPGQMIPEHAHVKTDFPAKHESWMVEKGWVYNFSEVGDETPNAPAIPAGHGPIKSKNFVVQKVGDVLRLKKLETFHFMMAGPEGAIVDEWACYHDNAGLRFTNQKAAL, MGSDKIHHHHHHATSFTDSLDLTQYRNDVKTLASDAFGGRAPLSEGEQLTLDYLEKAFKEMGLKPAFGDSYLQAVPLAKISADQNMQLDIGGLKLANGSEFTARTQRIAEKVSLKNSDVVFVGYGINAPEYGWNDYQGLDVKGKTVIVLVNDPGFATQDPNVFKGNAMTYYGRWTYKYEEAARQGAEAVFIVHETAPAAYGWGVVQNSNTGTKFALVDTNNNQGQVGVMGWVQYEVAQNIFAKAGMNFDNLKQQAAKPNFKALPLKLRATLTLNNTIERAESHNVAALLPGKTRPDEVVMMHAHWDHLGTIIENGKPEILNGAVDNASGVAGVLALARYFKQQAEIAPLERSIIFSAFTAEETGLIGAQHFAQHPSVPTKDIVAFLNIDGMNVGQSVDYILRYGDGVSELEQYLDKAAKAQGRLVKADPRPQNGLMFRSDHFALAQQGVPGLLFMSLGDTDPDYIAHKYHQGADDYDPNWSLAGVSQDLELMAQMLTMLANSRDWPRWIESSDFKAKREQDGRN
